Substitutions are numbered along the chain they refer to. In names and notes the source's numbering stands.
Columns and labels:
[1] = molecular target: T1, cynomolgus monkey C2 (cynomolgus monkey, UniProt G8F3W0 21-752); assay: cell-based or functional assay
T1 sequence: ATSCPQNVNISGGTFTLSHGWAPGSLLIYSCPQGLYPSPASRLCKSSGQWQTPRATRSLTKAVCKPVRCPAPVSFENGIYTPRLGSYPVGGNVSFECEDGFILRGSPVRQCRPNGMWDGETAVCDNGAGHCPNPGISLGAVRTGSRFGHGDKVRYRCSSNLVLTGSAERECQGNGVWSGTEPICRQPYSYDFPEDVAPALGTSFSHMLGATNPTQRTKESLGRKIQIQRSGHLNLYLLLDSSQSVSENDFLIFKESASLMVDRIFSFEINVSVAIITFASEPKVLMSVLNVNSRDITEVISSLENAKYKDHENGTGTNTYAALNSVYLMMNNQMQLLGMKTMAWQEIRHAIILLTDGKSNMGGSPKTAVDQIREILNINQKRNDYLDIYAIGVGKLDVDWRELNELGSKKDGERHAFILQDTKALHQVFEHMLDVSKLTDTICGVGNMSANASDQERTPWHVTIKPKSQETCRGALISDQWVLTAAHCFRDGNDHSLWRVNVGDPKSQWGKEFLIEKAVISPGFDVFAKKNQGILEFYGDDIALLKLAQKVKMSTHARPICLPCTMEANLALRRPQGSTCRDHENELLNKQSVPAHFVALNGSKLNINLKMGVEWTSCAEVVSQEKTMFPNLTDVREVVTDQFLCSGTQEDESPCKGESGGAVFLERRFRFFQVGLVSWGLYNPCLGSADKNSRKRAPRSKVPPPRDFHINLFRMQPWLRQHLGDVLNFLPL

[2] = molecular target: T2, human complement C2 (human, UniProt P06681 21-752); assay: cell-based or functional assay
T2 sequence: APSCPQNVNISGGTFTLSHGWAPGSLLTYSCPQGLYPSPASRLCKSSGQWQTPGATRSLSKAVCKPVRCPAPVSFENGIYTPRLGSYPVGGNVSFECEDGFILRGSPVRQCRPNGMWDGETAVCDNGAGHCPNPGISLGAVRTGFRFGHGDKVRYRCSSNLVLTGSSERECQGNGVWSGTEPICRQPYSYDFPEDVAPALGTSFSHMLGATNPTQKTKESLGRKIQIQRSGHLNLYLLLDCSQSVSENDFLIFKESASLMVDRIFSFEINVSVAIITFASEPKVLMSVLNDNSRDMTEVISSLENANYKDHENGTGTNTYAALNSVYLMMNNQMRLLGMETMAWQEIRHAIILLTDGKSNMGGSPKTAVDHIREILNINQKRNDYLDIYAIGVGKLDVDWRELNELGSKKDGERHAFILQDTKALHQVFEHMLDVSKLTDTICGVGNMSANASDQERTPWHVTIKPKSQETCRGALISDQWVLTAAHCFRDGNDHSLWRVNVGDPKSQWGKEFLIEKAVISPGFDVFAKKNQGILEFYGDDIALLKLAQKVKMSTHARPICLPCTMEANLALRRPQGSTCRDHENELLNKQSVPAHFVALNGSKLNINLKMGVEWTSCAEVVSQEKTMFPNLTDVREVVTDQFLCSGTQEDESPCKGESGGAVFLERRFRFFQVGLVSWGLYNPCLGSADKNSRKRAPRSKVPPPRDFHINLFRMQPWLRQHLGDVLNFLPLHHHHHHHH

[3] = molecular target: T1, cynomolgus monkey C2; assay: SPR, mAb captured, cyno C2 analyte, pH 6.0
Method: (§1) Surface plasmon resonance (SPR, Biacore) was used for all binding affinity analyses. In brief, goat anti-human IgG was directly immobilised onto the carboxymethyl dextran surface of CM5 sensorchips to approximately 12,000 RU using standard NHS/EDC chemistry at pH 5. The immobilised antibody surface was pre-conditioned with ten injections of polyclonal human IgG (Privigen 60 s) prepared at 1 μg/mL. Ligands (anti-C2 mAbs) were captured at the beginning of each cycle as described below. An adjacent spot or flow cell in which only Polyclonal IgG was capture was used as a reference surface. The goat anti-human IgG Fc antibody surface was regenerate in 100 mM H3PO4, injected for 45 seconds at the end of each cycle. Experiments were performed at 37° C. and the flow rate of each experiment was kept constant at 30 μL/min.
(§2) In addition to human C2, the pH dependent anti-C2 antibodies were also tested for their ability to bind to C2 from other mammalian species using the SPR methods described above in order to identify suitable surrogate species for in vivo testing. The antibodies were tested for binding at neutral pH against C2 from cynomolgus monkeys, mice, dogs, rabbits, rats, pigs, and sheep.

[4] = molecular target: T2, human complement C2; assay: cell-based or functional assay; remark: listed apart in the source
[5] = molecular target: T1, cynomolgus monkey C2; assay: cell-based or functional assay; remark: listed apart in the source
[6] = molecular target: T1, cynomolgus monkey C2; assay: SPR, mAb captured, cyno C2 analyte, pH 7.3
Method: as §1, §2

[7] = molecular target: T2, human complement C2; assay: SPR, mAb captured, C2 analyte, HBS-EP, pH 7.3
Method: as §1
(§3) The pH dependent anti-C2 antibodies and their germlined versions were tested for their affinity to C2 at pH 7.3 (neutral pH) and pH 6.0 (early endosome pH) using the SPR methods described above in HBS-EP buffer.

[8] = molecular target: T2, human complement C2; assay: SPR, mAb captured, C2 analyte, HBS-EP, pH 6.0
Method: as §1, §3

[9] = molecular target: T3, mouse C2 (mouse, UniProt P21180 19-760, limits assumed); assay: SPR, mAb captured, mouse C2 analyte, pH 7.3
T3 sequence (looked up): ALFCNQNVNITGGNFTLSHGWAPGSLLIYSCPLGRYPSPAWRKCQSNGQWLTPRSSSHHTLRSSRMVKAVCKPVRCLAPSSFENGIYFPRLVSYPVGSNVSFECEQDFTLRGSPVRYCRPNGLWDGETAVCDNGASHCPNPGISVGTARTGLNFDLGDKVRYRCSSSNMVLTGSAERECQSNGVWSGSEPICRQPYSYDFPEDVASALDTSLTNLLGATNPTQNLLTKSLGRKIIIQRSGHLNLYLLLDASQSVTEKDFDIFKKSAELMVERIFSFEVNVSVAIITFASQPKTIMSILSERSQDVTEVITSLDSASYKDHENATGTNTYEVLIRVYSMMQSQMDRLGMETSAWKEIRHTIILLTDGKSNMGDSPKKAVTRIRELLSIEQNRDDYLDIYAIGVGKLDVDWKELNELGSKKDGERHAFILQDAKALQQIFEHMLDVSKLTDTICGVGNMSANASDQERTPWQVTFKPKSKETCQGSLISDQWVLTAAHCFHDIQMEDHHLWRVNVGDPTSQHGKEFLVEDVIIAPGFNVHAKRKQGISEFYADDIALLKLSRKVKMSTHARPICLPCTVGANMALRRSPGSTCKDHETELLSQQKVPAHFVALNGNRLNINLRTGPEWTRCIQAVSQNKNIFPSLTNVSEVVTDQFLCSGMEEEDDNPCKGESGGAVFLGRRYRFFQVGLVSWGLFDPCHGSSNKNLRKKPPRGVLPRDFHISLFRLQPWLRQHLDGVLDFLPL
Method: as §1, §2

[10] = molecular target: T2, human complement C2; assay: SPR, mAb captured, huC2 analyte, neutral pH; pH 7
[11] = molecular target: T2, human complement C2; assay: SPR, mAb captured, huC2 analyte, pH 6
[12] = molecular target: T4, human FcRn/β2m (human, UniProt P55899 24-297; P61769 21-119); assay: SPR, antibody immobilised, FcRn/β2m analyte, pH 6.0; pH 6.0
T4 construct: Soluble FcRn/β2m injected as analyte over immobilised antibody; also called neonatal Fc receptor
T4 sequence (P55899 24-297 limits assumed, chain 1 of 2): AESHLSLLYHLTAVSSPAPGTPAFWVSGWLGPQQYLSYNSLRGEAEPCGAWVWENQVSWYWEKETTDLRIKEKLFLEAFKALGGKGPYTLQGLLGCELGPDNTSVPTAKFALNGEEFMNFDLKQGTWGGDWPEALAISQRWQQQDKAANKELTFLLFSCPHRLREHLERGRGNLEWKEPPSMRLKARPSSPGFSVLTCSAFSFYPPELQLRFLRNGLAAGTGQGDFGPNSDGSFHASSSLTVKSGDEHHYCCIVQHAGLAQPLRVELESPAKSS
T4 sequence (P61769 21-119 limits assumed, chain 2 of 2): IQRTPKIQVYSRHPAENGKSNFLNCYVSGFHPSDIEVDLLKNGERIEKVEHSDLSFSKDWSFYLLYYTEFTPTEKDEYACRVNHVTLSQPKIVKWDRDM
Method: (§4) Anti-C2 mAbs (1 μg/mL at pH 5) were immobilized on a carboxylmethyldextran (CM5) sensorchip surface using standard EDC/NHS chemistry. Human and Cyno FcRn/β2m (40 μM) were prepared in running buffer (10 mM HEPES, 150 mM NaCl, 10 mM MES adjusted to either pH 6 or pH 7.3) and injected on the immobilized anti-C2 surface at concentrations ranging from 0.078 to 40 μM, prepared in two-fold dilutions in running buffer. Association and dissociation phases were monitored for 180 and 600 seconds, respectively. […] Double referenced sensorgrams were fitted to either a 1:1 kinetic model (pH 6), including a term for mass transport limitation or to a 1:1 steady state model (pH 7.3) where responses at the end of the association phase were plotted against respective concentrations.
(§5) Binding to both human and cynomolgus monkey FcRn was tested using the SPR methods described above.

[13] = molecular target: T5, cynomolgus monkey FcRn/β2m (cynomolgus monkey, UniProt Q8SPV9 24-297; Q8SPW0 21-119, limits assumed); assay: SPR, immobilised antibody, cyno FcRn/b2m analyte, pH 6.0; pH 6.0
T5 construct: injected in solution over immobilised antibody; also called Cyno FcRn/β2m
T5 sequence (Q8SPV9 24-297 limits assumed, chain 1 of 2): as the sequence (P55899 24-297 limits assumed, chain 1 of 2) above, with N39D, E44Q, G99S, S189G, S190N, L217M, S269T counted along it
T5 sequence (Q8SPW0 21-119 limits assumed, chain 2 of 2): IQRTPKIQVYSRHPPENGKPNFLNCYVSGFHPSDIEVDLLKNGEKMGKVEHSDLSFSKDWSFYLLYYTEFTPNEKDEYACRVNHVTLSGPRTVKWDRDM
Method: as §4, §5

B1: RF16-191 (antibody, V domains shown)
VH: EVQLLESGGGLVQPGGSLRLSCAASGFTFSKYWMGWVRQATGKGLEWVSSIYSSGGWTYYADSVKGRFTISRDNSKNTLYLQMNSLRAEDTAVYYCARRPRSFSGSYYRAFDIWGQGTMVTVSS
VL: DIQMTQSPSSLSASVGDRVTITCRASQSITDYLNWYQQRPGKAPKLLIYAASSLQSGVPSRFSGSGSGTDFTLTISGLQPEDFATYYCQQSYSSSITFGQGTRLDLKR
notes: Human antibody from a phage display library
- IC50, inhibition of cyno classical pathway (hemolysis assay) [1]: 188 nM
- IC50, inhibition of human classical pathway (hemolysis assay) [2]: 29.4 nM
- Kd [3]: 71.3 nM
- IC50, inhibition of human classical complement pathway (Wieslab assay) [4]: 1.09 nM
- IC50, inhibition of human lectin complement pathway (Wieslab assay) [4]: 0.857 nM
- IC50, inhibition of cynomolgus classical complement pathway (Wieslab assay) [5]: 11 nM
- IC50, inhibition of cynomolgus lectin complement pathway (Wieslab assay) [5]: 49.2 nM
- Kd [6]: 27.4 nM
- Kd [7]: 10.9 nM
- Kd [8]: 13 nM
- Kd [9]: 303 nM

B2: RF16-226 YEY (antibody, human IgG4 S228P, lambda)
heavy: EVQLVQSGAEVKKPGESLKISCKGSGYSFTSYWIGWVRQMPGKGLEWMGIIYPGDSDTRYSPSFQGQVTISADKSISTAYLQWSSLKASDTAMYYCARRFSYSSGWDMWGQGTLVTVSSASTKGPSVFPLAPCSRSTSESTAALGCLVKDYFPEPVTVSWNSGALTSGVHTFPAVLQSSGLYSLSSVVTVPSSSLGTKTYTCNVDHKPSNTKVDKRVESKYGPPCPPCPAPEFLGGPSVFLFPPKPKDTLYISRTPEVTCVVVDVSQEDPEVQFNWYVDGVEVHEAKTKPREEQFNSTYRVVSVLTVLHQDWLNGKEYKCKVSNKGLPSSIEKTISKAKGQPREPQVYTLPPSQEEMTKNQVSLTCLVKGFYPSDIAVEWESNGQPENNYKTTPPVLDSDGSFFLYSRLTVDKSRWQEGNVFSCSVMHEALHYHYTQKSLSLSLGK
light: SYELTQPPSVSVSPGQTARITCSGDALTSKYVAWYQQKSGLAPLLVIYEDTRRPSGIPAKFSGSSSGSVATLTISGAHGDDEADYYCYSTDASGHQRVFGGGTKLTVLSQPKAAPSVTLFPPSSEELQANKATLVCLISDFYPGAVTVAWKADGSPVKAGVETTKPSKQSNNKYAASSYLSLTPEQWKSHRSYSCQVTHEGSTVEKTVAPTECS
- Kd [10]: ~9 nM
- Kd [11]: ~80 nM

B3: RF16-226 M428L, N434A (antibody, human IgG4 S228P, lambda)
heavy: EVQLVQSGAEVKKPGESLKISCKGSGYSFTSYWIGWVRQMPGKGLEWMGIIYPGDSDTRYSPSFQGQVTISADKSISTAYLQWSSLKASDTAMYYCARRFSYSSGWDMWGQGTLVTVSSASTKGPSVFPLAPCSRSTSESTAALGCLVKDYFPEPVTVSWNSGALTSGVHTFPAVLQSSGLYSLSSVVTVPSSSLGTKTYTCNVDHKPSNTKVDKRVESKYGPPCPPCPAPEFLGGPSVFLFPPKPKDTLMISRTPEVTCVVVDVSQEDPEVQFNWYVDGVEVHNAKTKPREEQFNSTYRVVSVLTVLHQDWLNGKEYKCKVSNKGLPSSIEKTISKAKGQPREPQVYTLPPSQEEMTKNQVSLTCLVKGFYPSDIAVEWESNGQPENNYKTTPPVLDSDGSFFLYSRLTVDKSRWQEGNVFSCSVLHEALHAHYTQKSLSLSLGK
light: B2 light
- Kd [12]: 640 nM

B4: RF16-226 YTE (antibody, human IgG4 S228P, lambda)
heavy: B2 heavy with S253T, T255E, E285N, Y433N
light: B2 light
- Kd [10]: ~9 nM
- Kd [11]: ~80 nM

B5: RF16-226 Fc mutant M428L, N434A (antibody, human IgG4 S228P, lambda)
heavy: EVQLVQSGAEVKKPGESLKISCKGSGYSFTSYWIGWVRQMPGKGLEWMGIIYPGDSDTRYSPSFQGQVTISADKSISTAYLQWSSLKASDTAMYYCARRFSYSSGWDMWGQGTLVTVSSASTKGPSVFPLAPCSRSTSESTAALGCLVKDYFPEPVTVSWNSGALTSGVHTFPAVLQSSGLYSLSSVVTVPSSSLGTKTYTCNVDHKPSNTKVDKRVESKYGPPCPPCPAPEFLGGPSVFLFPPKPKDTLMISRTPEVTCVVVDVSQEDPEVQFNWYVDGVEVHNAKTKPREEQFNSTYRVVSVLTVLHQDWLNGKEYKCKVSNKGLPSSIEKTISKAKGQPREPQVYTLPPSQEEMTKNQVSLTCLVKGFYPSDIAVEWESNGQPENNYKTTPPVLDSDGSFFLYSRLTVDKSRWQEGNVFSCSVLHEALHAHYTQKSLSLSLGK
light: B2 light
- Kd [13]: 420 nM

B6: RF16-226 YPY (antibody, human IgG4 S228P, lambda)
heavy: B2 heavy with E285N, V307P
light: B2 light
- Kd [10]: ~9 nM
- Kd [11]: ~80 nM

B7: RF16-226 M252Y, S254T, T256E (antibody, human IgG4 S228P, lambda)
heavy: B2 heavy with S253T, T255E, E285N, Y433N
light: B2 light
- Kd [12]: 680 nM
